Measurements from patent US20130150297A1 (KAI PHARMACEUTICALS, published 2013).
Square brackets hold non-standard residues; d marks the D form. Ends that are not written are not given here.

T1: human calcium-sensing receptor (CaSR) (human, UniProt P41180 20-1078)
T1 sequence (looked up): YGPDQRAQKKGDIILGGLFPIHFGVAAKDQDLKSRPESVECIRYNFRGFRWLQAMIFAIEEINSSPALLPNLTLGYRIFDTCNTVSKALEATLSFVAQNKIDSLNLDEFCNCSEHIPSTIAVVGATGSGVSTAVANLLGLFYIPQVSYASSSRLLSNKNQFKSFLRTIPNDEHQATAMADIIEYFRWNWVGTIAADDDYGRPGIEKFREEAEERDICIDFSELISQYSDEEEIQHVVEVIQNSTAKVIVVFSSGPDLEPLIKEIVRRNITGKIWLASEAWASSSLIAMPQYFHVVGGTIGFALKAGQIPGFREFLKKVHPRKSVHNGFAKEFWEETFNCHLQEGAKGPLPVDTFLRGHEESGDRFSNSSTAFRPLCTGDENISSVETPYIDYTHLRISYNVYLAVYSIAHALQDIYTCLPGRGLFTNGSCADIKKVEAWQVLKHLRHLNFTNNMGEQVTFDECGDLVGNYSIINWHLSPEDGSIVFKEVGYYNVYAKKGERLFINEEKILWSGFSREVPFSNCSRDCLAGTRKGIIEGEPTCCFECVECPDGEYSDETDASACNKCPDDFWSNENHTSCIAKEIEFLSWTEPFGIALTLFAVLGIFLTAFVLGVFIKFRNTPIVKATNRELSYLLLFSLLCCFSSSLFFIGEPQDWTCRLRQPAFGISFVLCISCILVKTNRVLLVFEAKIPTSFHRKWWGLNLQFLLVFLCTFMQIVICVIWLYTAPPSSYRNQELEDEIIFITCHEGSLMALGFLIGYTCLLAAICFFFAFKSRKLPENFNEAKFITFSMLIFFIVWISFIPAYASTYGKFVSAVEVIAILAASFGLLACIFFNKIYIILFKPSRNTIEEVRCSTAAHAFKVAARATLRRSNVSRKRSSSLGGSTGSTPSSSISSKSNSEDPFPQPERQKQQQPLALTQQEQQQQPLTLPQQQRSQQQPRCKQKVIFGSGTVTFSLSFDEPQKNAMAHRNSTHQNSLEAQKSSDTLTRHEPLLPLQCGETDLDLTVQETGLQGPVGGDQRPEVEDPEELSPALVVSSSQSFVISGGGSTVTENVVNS

B1: Ac-bAla-c(C)arrrar-NH2 (peptide)
peptide: XXXXXXXX
modifications: not fully specified; N-terminal acetylated beta-alanine; C-terminal amide; c, a, r residues D-amino acids; D-Cys linked to an L-Cys residue
B2: (SEQ ID NO: 46) (SEQ ID NO: 47) conjugate, structure given only as drawing CHEM-US-00002 (peptide)
peptide 1: CPDYHDAGI
peptide 2: CYGRKKRRQRRR
modifications: cysteine pairing not given here; also: further groups not given here
B3: Ac-c(Benzoyl)rrrrrr-NH2 (peptide)
peptide: XXXXXXX
modifications: N-terminal acetyl; C-terminal amide; all residues D-amino acids; benzoyl attached to the side chain of D-Cys 1
B4: c(C)arrrar-NH2 (peptide)
peptide: XXXXXXX
modifications: no N-terminal cap; C-terminal amide; all seven residues D-amino acids; D-Cys 1 linked to an L-Cys residue
B5: (SEQ ID NO: 45) (SEQ ID NO: 47) conjugate, structure given only as drawing CHEM-US-00001 (peptide)
peptide 1: CHDAPIGYD
peptide 2: CYGRKKRRQRRR
modifications: cysteine pairing not given here; also: further groups not given here
B6: Ac-c(PEG5-C)rrrrrr-NH2 (peptide)
peptide: XXXXXXX
modifications: N-terminal acetyl; C-terminal amide; all residues D-amino acids; L-Cys carrying a 5 kDa polyethylene glycol (PEG5-C) attached to the side chain of D-Cys 1
B7: Ac-dHcy rrrrrr-NH2 (peptide)
peptide: XXXXXXX
modifications: N-terminal acetyl; C-terminal amide; residue 1 is D-homocysteine (dHcy); residues 2-7 D-Arg
B8: Ac-bAla-crrrrrr-NH2 (peptide)
peptide: XXXXXXXX
modifications: N-terminal acetylated beta-alanine; C-terminal amide; Cys and Arg residues are D-amino acids
B9: Ac-CaRrRaR-NH2 (peptide)
peptide: CXRXRXR
modifications: N-terminal acetyl; C-terminal amide; L-Cys 1, D-Ala 2, L-Arg 3, D-Arg 4, L-Arg 5, D-Ala 6, L-Arg 7
B10: Ac-caaarrrrrr-NH2 (peptide)
peptide: Ac-[dC][dA][dA][dA][dR][dR][dR][dR][dR][dR]-NH2
SMILES: CC(=O)N[C@H](CS)C(=O)N[C@H](C)C(=O)N[C@H](C)C(=O)N[C@H](C)C(=O)N[C@H](CCCNC(=N)N)C(=O)N[C@H](CCCNC(=N)N)C(=O)N[C@H](CCCNC(=N)N)C(=O)N[C@H](CCCNC(=N)N)C(=O)N[C@H](CCCNC(=N)N)C(=O)N[C@H](CCCNC(=N)N)C(N)=O
B11: Ac-c(GS)rrrrrr-NH2 (peptide)
peptide: XXXXXXX
modifications: N-terminal acetyl; C-terminal amide; all residues D-amino acids; oxidized glutathione (GS) attached to the side chain of D-Cys 1
B12: Ac-cygrkkrrqrrr-NH2 (peptide)
peptide: XXXXXXXXXXXX
modifications: N-terminal acetyl; C-terminal amide; printed in lower case (D-amino acids; glycine is achiral)
B13: Ac-c(acetyl)rrrrrr-NH2 (peptide)
peptide: XXXXXXX
modifications: N-terminal acetyl; C-terminal amide; all residues D-amino acids; acetyl attached to the side chain of D-Cys 1
B14: Ac-c(Mpa)arrrar-NH2 (peptide)
peptide: XXXXXXX
modifications: N-terminal acetyl; C-terminal amide; all residues D-amino acids; mercaptopropionic acid (Mpa) attached to the side chain of D-Cys 1
B15: Ac-c(C)arrrar-NH2 (peptide)
peptide: XXXXXXX
modifications: N-terminal acetyl; C-terminal amide; all seven residues D-amino acids; D-Cys 1 linked by a disulfide bond to an L-Cys residue
B16: Ac-c(Ac-C)arrrar-NH2 (peptide)
peptide: XXXXXXX
modifications: not fully specified; N-terminal acetyl; C-terminal amide; all seven residues D-amino acids; N-acetyl-L-Cys attached to the side chain of D-Cys 1
B17: Ac-C(C)arrrar-NH2 (peptide)
peptide: XXXXXXX
modifications: not fully specified; N-terminal acetyl; C-terminal amide; L-Cys 1 linked by a disulfide bond to an L-Cys residue; residues 2-7 D-amino acids

Each binder was assayed against T1, human calcium-sensing receptor (CaSR) (assay: cell-based or functional assay).

Row | Binder | EC50 (µM), CaSR in vitro assay (IP1 production)
1 | B1 | 2.6 µM
2 | B2 | 21 µM
3 | B3 | 3.6 µM
4 | B4 | 3.1 µM
5 | XAXXXAX (N-terminal acetyl; C-terminal amide; D-amino acids except L-Ala 2 and L-Ala 6) [Ac-cArrrAr-NH2] | > 1000 µM
6 | XXXXX (N-terminal acetyl; C-terminal amide; all residues D-amino acids) [Ac-crrrr-NH2] | 16 µM
7 | B5 | 21 µM
8 | B6 | 0.58 µM
9 | B7 | 2 µM
10 | B8 | 1 µM
11 | B9 | 5.6 µM
12 | B10 | 4.6 µM
13 | Ac-CARRRAR-NH2 [Ac-CARRRAR-NH2] | 58 µM
14 | B11 | 7.8 µM
15 | B12 | 2 µM
16 | B13 | 4.1 µM
17 | B14 | 21 µM
18 | XXXXXXX (N-terminal acetyl; free C-terminal acid (-OH); all residues D-amino acids) [Ac-carrrar-OH] | 31 µM
19 | Ac-YGRKKRRQRRR-NH2 [Ac-YGRKKRRQRRR-NH2] | 16 µM
20 | XXXXXXX (no N-terminal cap; C-terminal amide; all residues D-amino acids) [crrrrrr-NH2] | 1.1 µM
21 | B15 | 10 µM
22 | B16 | 21 µM
23 | Ac-CYGRKKRRQRRR-NH2 [Ac-CYGRKKRRQRRR-NH2] | 4.5 µM
24 | B17 | 2.5 µM

Target: T1, human calcium-sensing receptor (CaSR)
Assay: cell-based or functional assay
Remark: another data set of the same source

Row | Binder | reduction in potency relative to Ac-carrrar-NH2 (SEQ ID NO:26) | decrease in potency relative to Ac-carrrar-NH2 (SEQ ID NO:26) | shift in potency in HEK-293 in vitro cell assay (4 versus 5 arginine subunits) | difference in potency relative to Ac-carrrar-NH2 (SEQ ID NO:26)
25 | XGXXXGX (N-terminal acetyl; C-terminal amide; D-amino acids except Gly 2 and Gly 6) [Ac-cGrrrGr-NH2] | < 8 fold |  |  | 
26 | XAXXXAX (N-terminal acetyl; C-terminal amide; D-amino acids except L-Ala 2 and L-Ala 6) [Ac-cArrrAr-NH2] |  | > 600 fold |  | 
27 | XXXXX (N-terminal acetyl; C-terminal amide; all residues D-amino acids) [Ac-crrrr-NH2] |  |  | > 10 fold | 
28 | B9 |  |  |  | < 4 fold
